Reference: publication PMC12141716, “An archaeal nucleoid-associated protein binds an essential motif in DNA replication origins” (Nature Communications, 2025)

Biological target: T1, UBP (Sulfolobus islandicus REY15A, UniProt F0NFD3 1-111)
T1 sequence: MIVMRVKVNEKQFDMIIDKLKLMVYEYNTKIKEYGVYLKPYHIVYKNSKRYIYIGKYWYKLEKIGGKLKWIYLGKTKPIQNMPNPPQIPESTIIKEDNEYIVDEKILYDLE
Experiment: thermal melting protection; 55-65 C, 50 mM NaCl; EMSA: 50 mM K-acetate, 20 mM Tris-acetate, 10 mM Mg-acetate, 1 mM DTT, pH 7.9, 5-10% glycerol, 70 mM NaCl, 800 ng salmon sperm DNA per 10 ul, room temperature 10 min; footprinting same buffer, 4% glycerol, 8000 ng salmon sperm DNA; pull-down 25 mM HEPES pH 7.5, 150 mM NaCl, 10 mM MgCl, 100 uM ZnCl, 10 mM DTT, 48 C
Details: protein: recombinant; tags: MBP tag removed by Factor Xa; 3 extra vector residues at N-terminus; chain copies: 2; label: 5'-32P; 40 bp duplex with 10 nt C overhangs at 5' and 3' of strand 2

B1: 40 bp duplex for melting (P19/P20) (dsDNA)
DNA 1: ATAATTAGATAACCATTATACAAAAGAATTGTATAAGAAT
DNA 2: CCCCCCCCCCATTCTTATACAATTCTTTTGTATAATGGTTATCTAATTATCCCCCCCCCC
B1: binds.
